{"source": "FireProtDB (doi:10.1016/j.jmb.2005.09.061)", "conditions": "Capra hircus, pH 7, Thermal, CD, sodium cacodylate 50 mM, NaCl 50 mM, reversible: Yes, whole UniProt chain shown", "note": "Values joined by “and” are separate entries in the source; they are usually repeats but may differ in a detail not shown here. Equal values may be shown once.", "data": [{"protein": "Alpha-lactalbumin wild type, P00712 (protein) MMSFVSLLLVGILFHATQAEQLTKCEVFQKLKDLKDYGGVSLPEWVCTAFHTSGYDTQAIVQNNDSTEYGLFQINNKIWCKDDQNPHSRNICNISCDKFLDDDLTDDIVCAKKILDKVGINYWLAHKALCSEKLDQWLCEKL", "values": [{"measurement": "heat capacity change of unfolding", "setting": "59 °C", "value": 1.8, "unit": "kcal/mol/K"}, {"measurement": "unfolding free energy", "setting": "59 °C", "value": 0, "unit": "kcal/mol"}, {"measurement": "heat capacity change of unfolding", "value": 1.8, "unit": "kcal/mol/K"}, {"measurement": "unfolding enthalpy (van 't Hoff)", "value": "85.1 kcal/mol and 69.5 kcal/mol"}]}]}
